From the DeepSol protein solubility set come the findings set out here.

The nature of this series: soluble on expression in E. coli; label from the status in PepcDB or PDB records.
Take “MAHHHHHHMMEERYNPFTGYQTPRHQQQSYRHNGGAMSRGGWGERVDAPADKMKPVDWTRVKLVPGSWKVLDTKAIHRAAHAKAEVVPAKQLTEEESNEWRETHTISIFGEGCPPPLSNFDQLSAFVPAYLQKKLTAQGFTSPTAVQAQAWPILLRGRDMVGVAKTGSGKTLAFMVPALAHIAMQEPLRTGDGPMVVVLAPTRELAQQIEQETKKVLPHDLRCGCVYGGAPKGPQLGILRNGVHILVATPGRLIDFLEIKRVNFFRVTYLVLDEADRMLDMGFEPQVRAICGQIRPDRQTLMFSATWPKEIQRLAAEFQKDWIRINVGSTELLANKDVTQHFILTQEHAKMEELKKLLANHRNQRVLIFCKTKRTADDLEWQLKRWGYDAMAIHGDKEQRQREFILERFRKDPRLCLVATDVAARGLDIKELETVINYDFPMQIDDYVHRIGRTGRAGAKGEAFTLITKREQQITPAVVTELIAIVDRAQQQVPDWLREWGEQRPRYQVMKRNRNMMGFGSSRHMPALYNGNRASFDAAGGGHPGNNNGTAGNKRGGEGGVFGLARHGSNGAAPFSSSRIEYKRFDDSDDDDGAAPPAKKRSK”: the “soluble on expression in E. coli” value is “soluble”. Consider “MAHHHHHHMMGISPEAVLLDFDWTASYVLATDRLSTAAMNRATARTVSMEGGADGADTKPRNSGGGMPLLQLAMDVARVAPPSEVASISPLVSPVSGVRLQLLATASSEMQGGGEGQPAERMLLPNDRLTMELDAESLDALIAALRTAVDGMDSLSGC”, for which the “soluble on expression in E. coli” value is recorded as “not soluble”. As to “MAHHHHHHMMSKPHHATLESIKYTPGSLRLLDQRKLPLETVFDDVLTVEDIWSAIKEMRVRGAPAIAVSAALGIAVATQRKAANGELKSGREVQTFLLTSCDFVMTSRPTAVNLFNCLRDLKAQVDKLDPTKAAAEVAQAFVELAEAVYTNDVAFNEGIMRHGAAHILAAAKAEGRDKVSILTICNTGALATSRYGTALGVVRQLFYDGKLERVYACETRPWNQGARLTVYECVQEDIPCTLICDGAASSLMLNRKIDAVVVGADRICQNGDTANKIGTYNLAVSAKFHGVKLYVAAPTTTLDVKTASGNHVEIEEREPTEITTNLVTKQRVVADGPHLSIWNPVFDITPSELITGGIITEKGVQAPAASAPYYDIASIIAQA”, the “soluble on expression in E. coli” value is given as “soluble”. To “MAHHHHHHMNPLYTDSISYSASDANITLPQQSMPQWANTNATASRVSAAPATAGEQAQQGNFASSLNSAGGFSVHVGSDAARSTLCSPKIATESLTAAAATTTTTKATTAVRRAPFLNPPPQQPLSGTRNRLSAPGSPAMYRSGPPIGFGGGPNYYYQYGGNTFIQDGKQQENEYYPPLPMSTPFHPVTAITKLVPLPHPKTGRGGIPAIFRFWGPIGSPAPRTPVPVPSLPNAGGVAATVFLAAIPISLVPQQMHPLSPRHPATGGSPAASSPLGGGESMGMSLVEVHHHSNGSSLGAGSPTAPAITPAPATAAAGASAVNLTVRVRRRTGGGNTAAIRVGGGASLAPLQLPSQGTSSLGASLTTLATTGPAKGPGTPFKHSPITPSNLPPAPLFAQSAPAQLLVDDSGSQRLSPTSMLPTNLVNEGSKTKGESVLRVDEDTYMQREAFRWNPYASTKWAQNRSNSTGASTSDSRGRLPVEGGSGSG” belongs “soluble”; to “MAHHHHHHMNSPVVKMKAVKNDVEIDNMKQAHILDGLALLQFFHWCEQKRKTKELFNETEMSLRHKVDYFRSTKKNFIFPSFSTISASGPNAAVIHYECTDKTNATIKPAIYLLDSGGQYLHGTTDVTRTTHFGEPTAEEKRIYTLVLKGHLRLRKVIFASYTNSSALDFIARENLFNNFMDYNHGTGHGVGLTLNVHEGGCSIGPVGGAPLKKNMVLSNEPGYYMKDKFGVRIENMQYVISKEITDTTEYLSFDDLTMYPYEKKLLDFSLLTNQEIKELNEYHTTIRNTLLPLVKQSPQEYGESVEKYLIEITEPIAIHNN”, “not soluble”.
